Consider eight molecules from patent publication US20160272683A1 (Novo Nordisk, published 2016).

Numbered stars: 1 amine (or outer) side, 2 acyl side, 3 side chain; on linkers, the order of the positions; unused ones are H or OH. Ends that are not written are not given here. * marks the point of attachment. C20 diacid = O=C(O)CCCCCCCCCCCCCCCCCCC(=O)*; C18 diacid = O=C(O)CCCCCCCCCCCCCCCCC(=O)*; γGlu = O=C(O)[C@H](CCC(=O)[*:2])N[*:1]; AEEA = NCCOCCOCC(=O)O

The target of assay [1] is T1, human calcitonin receptor (human, UniProt P30988 25-474).
T1 construct: whole, on cells; also called hCT-R; hCTR
T1 sequence (looked up): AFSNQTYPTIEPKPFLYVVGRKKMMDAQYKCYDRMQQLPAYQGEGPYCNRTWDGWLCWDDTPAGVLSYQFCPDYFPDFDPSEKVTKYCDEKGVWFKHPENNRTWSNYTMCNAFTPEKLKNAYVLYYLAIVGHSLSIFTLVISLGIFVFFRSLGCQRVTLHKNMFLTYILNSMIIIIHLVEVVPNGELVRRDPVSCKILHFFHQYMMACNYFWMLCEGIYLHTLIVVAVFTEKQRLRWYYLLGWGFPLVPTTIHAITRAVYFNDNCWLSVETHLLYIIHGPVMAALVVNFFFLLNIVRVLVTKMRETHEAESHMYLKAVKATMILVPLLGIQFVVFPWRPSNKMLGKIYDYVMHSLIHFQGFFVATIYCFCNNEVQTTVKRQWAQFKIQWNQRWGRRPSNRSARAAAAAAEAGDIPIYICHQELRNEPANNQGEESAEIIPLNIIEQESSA
Description: whole-cell competition vs 125I-human calcitonin (Assay VIIa). In outline:
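BHK tk'ts 13 cells stably co-expressing human calcitonin receptor and a CRE-luciferase reporter, seeded overnight at 37 °C. Bound tracer counted by scintillation after cold HBSS washes and NaOH/SDS lysis; IC₅₀ from one-site competition fit taken as receptor affinity.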

Assay [2] deals with T2, human calcitonin receptor (human, UniProt P30988 25-474).
T2 construct: whole, on cells; Assay VII: membranes on SPA beads; also called hCT-R; hCTR
T2 sequence (looked up): T1 sequence (looked up)
Description: SPA competition vs 125I-calcitonin, membranes with human CTR (Assay VII). The protocol: The binding assay was performed using scintillation proximity assay (SPA) beads (RPNQ0001) from PerkinElmer® and cell membranes prepared from a BHK tk'ts 13 cell line was stably transfected with the human calcitonin receptor and a CRE-responsive luciferase reporter gene. Membranes were prepared in the following way; the cells were rinsed with PBS and incubated with Versene for approximately 5 min before harvesting. The cells were flushed with PBS and the cell-suspension was centrifuged for 5 min at 1000 rpm.
(§1) EDTA (pH 7.4, buffer 2). The resulting pellet was resuspended in buffer 2 and protein concentration was tested (BCA protein Assay, Pierce). The homogenate was kept cold during the whole procedure. The membranes were kept at −80° C. until use. Assay was performed in a 384 well Optiplate (PerkinElmer®) in a total volume of 40 ul. Membranes were mixed with SPA beads. Final concentration of membranes 35 ng/μL final and Final concentration of SPA beads was 0.05 mg/well. Test-compounds were dissolved in DMSO and further diluted in assay buffer (50 mM Hepes, pH 7.4, 1 mM CaCl2, 5 mM MgCl2, 0.1% OA and 0.02% Tween20). […] Samples were analyzed on TopCounter™ (Packard). The IC₅₀ was calculated using (one site binding competition analysis) GraphPad Prism5 as a measure of receptor affinity.

In assay [3] the target is T3, human amylin receptor (amylin 3(a) receptor: human calcitonin receptor with RAMP-3) (human, UniProt P30988 25-474; O60896 24-148, limits assumed).
T3 construct: whole, on cells; Assay V: membranes of the Amylin 3(a)/CRE-luc BHK cells on SPA beads; also called hAmylin-R
T3 sequence (looked up) 1: T1 sequence (looked up)
T3 sequence (looked up) 2: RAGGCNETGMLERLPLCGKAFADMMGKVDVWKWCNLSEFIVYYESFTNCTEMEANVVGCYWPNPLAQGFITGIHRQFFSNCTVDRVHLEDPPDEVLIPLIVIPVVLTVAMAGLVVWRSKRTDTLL
The assay is described as follows: SPA competition vs 125I-rat amylin, membranes with human CTR + RAMP-3 (Assay V). Here is the method: as §1, with “The binding assay was performed using scintillation proximity assay (SPA) beads (RPNQ0001) from PerkinElmer and cell membranes from the Amylin 3(a)/CRE-luc cells (as described in Assay (II)) were used. Membranes were prepared in the following way; the cells were rinsed with PBS and incubated with Versene for approximately 5 min before harvesting. The cells were flushed with PBS and the cell-suspension was centrifuged for 5 min at 1000 rpm. […] The” for “EDTA (pH 7.4, buffer 2). The”, “use. The assay” for “use. Assay”, “Optiplate (PerkinElmer)” for “Optiplate (PerkinElmer®)”, “and” for “and Final concentration of”

The IC50 is the concentration that gives 50% inhibition.

B1: [N-terminal(C20 diacid-gGlu), des1, 4Q, 9V, 15Q, 16R, 19R, 21Q, 23Y, 27Q, 30S, 31Q, 32T, 33Y]mimylin (peptide)
peptide: {C20 diacid-γGlu}-ASQLSTAVLGRLSQRLHRLQTYPRTQTGSQTY-NH2
SMILES: CC(C)C[C@H](NC(=O)[C@H](CCCNC(=N)N)NC(=O)CNC(=O)[C@H](CC(C)C)NC(=O)[C@@H](NC(=O)[C@H](C)NC(=O)[C@@H](NC(=O)[C@H](CO)NC(=O)[C@H](CC(C)C)NC(=O)[C@H](CCC(N)=O)NC(=O)[C@H](CO)NC(=O)[C@H](C)NC(=O)CC[C@H](NC(=O)CCCCCCCCCCCCCCCCCCC(=O)O)C(=O)O)[C@@H](C)O)C(C)C)C(=O)N[C@@H](CO)C(=O)N[C@@H](CCC(N)=O)C(=O)N[C@@H](CCCNC(=N)N)C(=O)N[C@@H](CC(C)C)C(=O)N[C@@H](Cc1c[nH]cn1)C(=O)N[C@@H](CCCNC(=N)N)C(=O)N[C@@H](CC(C)C)C(=O)N[C@@H](CCC(N)=O)C(=O)N[C@H](C(=O)N[C@@H](Cc1ccc(O)cc1)C(=O)N1CCC[C@H]1C(=O)N[C@@H](CCCNC(=N)N)C(=O)N[C@H](C(=O)N[C@@H](CCC(N)=O)C(=O)N[C@H](C(=O)NCC(=O)N[C@@H](CO)C(=O)N[C@@H](CCC(N)=O)C(=O)N[C@H](C(=O)N[C@@H](Cc1ccc(O)cc1)C(N)=O)[C@@H](C)O)[C@@H](C)O)[C@@H](C)O)[C@@H](C)O
notes: also called Ex. #132
On to B1, for which, in assay [1], the IC50 was determined as 1.55 nM.

B2: [N-terminal(C20 diacid-gGlu), des1, 2L, 4Q, 8L, 9V, 15Q, 16R, 19R, 21Q, 23Y, 27Q, 30S, 31Q, 32T, 33Y]mimylin (peptide)
peptide: {C20 diacid-γGlu}-LSQLSTLVLGRLSQRLHRLQTYPRTQTGSQTY-NH2
SMILES: CC(C)C[C@H](NC(=O)CC[C@H](NC(=O)CCCCCCCCCCCCCCCCCCC(=O)O)C(=O)O)C(=O)N[C@@H](CO)C(=O)N[C@@H](CCC(N)=O)C(=O)N[C@@H](CC(C)C)C(=O)N[C@@H](CO)C(=O)N[C@H](C(=O)N[C@@H](CC(C)C)C(=O)N[C@H](C(=O)N[C@@H](CC(C)C)C(=O)NCC(=O)N[C@@H](CCCNC(=N)N)C(=O)N[C@@H](CC(C)C)C(=O)N[C@@H](CO)C(=O)N[C@@H](CCC(N)=O)C(=O)N[C@@H](CCCNC(=N)N)C(=O)N[C@@H](CC(C)C)C(=O)N[C@@H](Cc1c[nH]cn1)C(=O)N[C@@H](CCCNC(=N)N)C(=O)N[C@@H](CC(C)C)C(=O)N[C@@H](CCC(N)=O)C(=O)N[C@H](C(=O)N[C@@H](Cc1ccc(O)cc1)C(=O)N1CCC[C@H]1C(=O)N[C@@H](CCCNC(=N)N)C(=O)N[C@H](C(=O)N[C@@H](CCC(N)=O)C(=O)N[C@H](C(=O)NCC(=O)N[C@@H](CO)C(=O)N[C@@H](CCC(N)=O)C(=O)N[C@H](C(=O)N[C@@H](Cc1ccc(O)cc1)C(N)=O)[C@@H](C)O)[C@@H](C)O)[C@@H](C)O)[C@@H](C)O)C(C)C)[C@@H](C)O
notes: also called Ex. #133
As for B2, in assay [1], the IC50 came out at 9.66 nM.

B3: [N-terminal(C20 diacid-gGlu), 4Q, 9V, 15Q, 21Q, 23Y, 27G, 30S, 31G, 32T, 33Y]mimylin (peptide)
peptide: {C20 diacid-γGlu}-EASQLSTAVLGRLSQELHELQTYPRTGTGSGTY-NH2
SMILES: CC(C)C[C@H](NC(=O)[C@H](CCCNC(=N)N)NC(=O)CNC(=O)[C@H](CC(C)C)NC(=O)[C@@H](NC(=O)[C@H](C)NC(=O)[C@@H](NC(=O)[C@H](CO)NC(=O)[C@H](CC(C)C)NC(=O)[C@H](CCC(N)=O)NC(=O)[C@H](CO)NC(=O)[C@H](C)NC(=O)[C@H](CCC(=O)O)NC(=O)CC[C@H](NC(=O)CCCCCCCCCCCCCCCCCCC(=O)O)C(=O)O)[C@@H](C)O)C(C)C)C(=O)N[C@@H](CO)C(=O)N[C@@H](CCC(N)=O)C(=O)N[C@@H](CCC(=O)O)C(=O)N[C@@H](CC(C)C)C(=O)N[C@@H](Cc1c[nH]cn1)C(=O)N[C@@H](CCC(=O)O)C(=O)N[C@@H](CC(C)C)C(=O)N[C@@H](CCC(N)=O)C(=O)N[C@H](C(=O)N[C@@H](Cc1ccc(O)cc1)C(=O)N1CCC[C@H]1C(=O)N[C@@H](CCCNC(=N)N)C(=O)N[C@H](C(=O)NCC(=O)N[C@H](C(=O)NCC(=O)N[C@@H](CO)C(=O)NCC(=O)N[C@H](C(=O)N[C@@H](Cc1ccc(O)cc1)C(N)=O)[C@@H](C)O)[C@@H](C)O)[C@@H](C)O)[C@@H](C)O
In the case of B3, the IC50 in assay [1] was determined as 0.796 nM.

B4: [N-terminal(C20 diacid-gGlu), 2L, 4G, 8L, 9V, 15Q, 21Q, 23Y, 27G, 30S, 31G, 32T, 33Y]mimylin (peptide)
peptide: {C20 diacid-γGlu}-ELSGLSTLVLGRLSQELHELQTYPRTGTGSGTY-NH2
SMILES: CC(C)C[C@H](NC(=O)CNC(=O)[C@H](CO)NC(=O)[C@H](CC(C)C)NC(=O)[C@H](CCC(=O)O)NC(=O)CC[C@H](NC(=O)CCCCCCCCCCCCCCCCCCC(=O)O)C(=O)O)C(=O)N[C@@H](CO)C(=O)N[C@H](C(=O)N[C@@H](CC(C)C)C(=O)N[C@H](C(=O)N[C@@H](CC(C)C)C(=O)NCC(=O)N[C@@H](CCCNC(=N)N)C(=O)N[C@@H](CC(C)C)C(=O)N[C@@H](CO)C(=O)N[C@@H](CCC(N)=O)C(=O)N[C@@H](CCC(=O)O)C(=O)N[C@@H](CC(C)C)C(=O)N[C@@H](Cc1c[nH]cn1)C(=O)N[C@@H](CCC(=O)O)C(=O)N[C@@H](CC(C)C)C(=O)N[C@@H](CCC(N)=O)C(=O)N[C@H](C(=O)N[C@@H](Cc1ccc(O)cc1)C(=O)N1CCC[C@H]1C(=O)N[C@@H](CCCNC(=N)N)C(=O)N[C@H](C(=O)NCC(=O)N[C@H](C(=O)NCC(=O)N[C@@H](CO)C(=O)NCC(=O)N[C@H](C(=O)N[C@@H](Cc1ccc(O)cc1)C(N)=O)[C@@H](C)O)[C@@H](C)O)[C@@H](C)O)[C@@H](C)O)C(C)C)[C@@H](C)O
Turning to B4, the IC50 in assay [1] stood at 3.62 nM.

B5: [N-terminal(C20 diacid-gGlu-OEG), des1, 30S, 31G]mimylin (peptide)
peptide: {C20 diacid-γGlu-AEEA}-ASELSTAALGRLSAELHELATLPRTETGSGSP-NH2
notes: mimylin derivative; des1 = residue 1 deleted; also called Ex. #41; 41
Turning to B5, the IC50 in assay [2] came to 0.085 nM; in assay [3], 0.141 nM.

B6: [N-terminal(C20 diacid-gGlu), des1, 9S, 21S, 23Y, 30S, 31G, 33Y]mimylin (peptide)
peptide: {C20 diacid-γGlu}-ASELSTASLGRLSAELHELSTYPRTETGSGSY-NH2
SMILES: CC(C)C[C@H](NC(=O)[C@H](CO)NC(=O)[C@H](C)NC(=O)[C@@H](NC(=O)[C@H](CO)NC(=O)[C@H](CC(C)C)NC(=O)[C@H](CCC(=O)O)NC(=O)[C@H](CO)NC(=O)[C@H](C)NC(=O)CC[C@H](NC(=O)CCCCCCCCCCCCCCCCCCC(=O)O)C(=O)O)[C@@H](C)O)C(=O)NCC(=O)N[C@@H](CCCNC(=N)N)C(=O)N[C@@H](CC(C)C)C(=O)N[C@@H](CO)C(=O)N[C@@H](C)C(=O)N[C@@H](CCC(=O)O)C(=O)N[C@@H](CC(C)C)C(=O)N[C@@H](Cc1c[nH]cn1)C(=O)N[C@@H](CCC(=O)O)C(=O)N[C@@H](CC(C)C)C(=O)N[C@@H](CO)C(=O)N[C@H](C(=O)N[C@@H](Cc1ccc(O)cc1)C(=O)N1CCC[C@H]1C(=O)N[C@@H](CCCNC(=N)N)C(=O)N[C@H](C(=O)N[C@@H](CCC(=O)O)C(=O)N[C@H](C(=O)NCC(=O)N[C@@H](CO)C(=O)NCC(=O)N[C@@H](CO)C(=O)N[C@@H](Cc1ccc(O)cc1)C(N)=O)[C@@H](C)O)[C@@H](C)O)[C@@H](C)O
notes: mimylin derivative; des1 = residue 1 deleted; also called Ex. #100; 100
For B6, the results for the concentration for half-maximal inhibition (IC50) in assay [2] and in assay [3] were 0.1 nM and 0.171 nM, respectively.

B7: [C-terminal(-)]mimylin (peptide)
peptide: EASELSTAALGRLSAELHELATLPRTETGPESP-OH
notes: also called Ex. #135
B7: the IC50 in assay [1] amounted to 630 nM.

B8: [N-terminal(C18 diacid), C-terminal(-)]mimylin (peptide)
peptide: {C18 diacid}-EASELSTAALGRLSAELHELATLPRTETGPESP-OH
Consider B8, for which, in assay [1], the half-inhibitory concentration (IC50) was 42.4 nM.
